B1: GST-cleaved STAAU_R9-561-599 (peptide)
chain: GQETIESLNHKLREATRIGDVELQKYYLQQIVAKNKERM
modifications: not fully specified; also: labelled with [32P] at the HMK phosphate acceptor site when used as probe
notes: not shown: vector residues left after PreScission cleavage, with the HMK phosphorylation site of pGEX-6PK
B3: 96 ORF 78 fused to the carboxyl terminus of the yeast Gal4 DNA binding domain (pGBK 96ORF78) (other)
chain: MKLLSSIEQACDICRLKKLKCSKEKPKCAKCLKNNWECRYSPKTKRSPLTRAHLTEVESRLERLEQLFLLIFPREDLDMILKMDSLQDIKALLTGLFVQDNVNKDAVTDRLASVETDMPLTLRQHRISATSSSEESSNKGQRQLTVSMNIMQFKSLLKSMYEETKQSDPIVANVYIETGWAVNRLLDNNELSPFDDYDRVEKKIMNEINWKKTHIKEC
B4: Lamin C control of the yeast two-hybrid system (pGBKLaminC) (other)
chain: MKLLSSIEQACDICRLKKLKCSKEKPKCAKCLKNNWECRYSPKTKRSPLTRAHLTEVESRLERLEQLFLLIFPREDLDMILKMDSLQDIKALLTGLFVQDNVNKDAVTDRLASVETDMPLTLRQHRISATSSSEESSNKGQRQLTVSSEEVVSREVSGIKAAYEAELGDARKTLDSVAKERARLQLELSKVREEFKELKARNTKKEGDLIAAQARLKDLEALLNSKEAALSTALSEKRTLEGELHDLRGQVAKLEAALGEAKKQLQDEMLRRVDAENRLQTMKEELDFQKNIYSEELRETKRRHETRLVEID
notes: also called pGBKT7LaminC
B6: GST-cleaved 96 ORF 78 polypeptide (from pGEX-6PK 96ORF078) (other)
chain: MNIMQFKSLLKSMYEETKQSDPIVANVYIETGWAVNRLLDNNELSPFDDYDRVEKKIMNEINWKKTHIKEC
modifications: labelled with [^32P] at the heart muscle kinase phosphate acceptor site when used as probe
notes: also called [^32P]-96 ORF 78; purified 96 ORF 78 protein; not shown: vector residues left after PreScission cleavage, with the HMK phosphorylation site of pGEX-6PK

Experiment [1] concerns the target T1, GST/96ORF78 fusion protein from pGEX-6PK 96ORF078 (Staphylococcus aureus bacteriophage 96).
T1 construct: immobilized on nitrocellulose after SDS-PAGE, denatured and renatured; also called GST/960RF78; not shown: N-terminal GST tag encoded by pGEX-6P1 (Pharmacia Amersham Biotech); PreScission protease cleavage site and heart muscle kinase (HMK) phosphorylation site of pGEX-6PK (encoded by oligonucle)
T1 chain: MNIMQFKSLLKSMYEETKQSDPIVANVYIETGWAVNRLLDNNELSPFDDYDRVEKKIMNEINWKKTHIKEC
In words: affinity blotting (Far western), 32P-labelled probe on renatured blotted protein.

Experiment [2] concerns the target B6. Described as above.
The target in experiment [3] is T2, GST (glutathione-S-transferase), negative control (UniProt P08515 1-218 = GST).
T2 construct: also called purified GST protein
T2 sequence (P08515 whole entry): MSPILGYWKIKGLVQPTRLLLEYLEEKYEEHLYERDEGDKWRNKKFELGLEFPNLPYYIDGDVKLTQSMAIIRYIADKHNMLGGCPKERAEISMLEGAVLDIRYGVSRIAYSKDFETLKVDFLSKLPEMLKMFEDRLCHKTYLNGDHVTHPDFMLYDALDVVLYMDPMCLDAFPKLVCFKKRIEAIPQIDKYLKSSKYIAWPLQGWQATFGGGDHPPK
The experiment is described as above.

Experiment [4] deals with B3. In words: yeast two-hybrid, growth on THAL minus medium.
The target in experiment [5] is T3, STAAU_R9-35 (amino acids 35 to 599 of SEQ ID NO: 2) in pGADT7, Gal4 activation domain fusion (yeast; Staphylococcus aureus, UniProt Q5HFJ8 35-599).
T3 sequence: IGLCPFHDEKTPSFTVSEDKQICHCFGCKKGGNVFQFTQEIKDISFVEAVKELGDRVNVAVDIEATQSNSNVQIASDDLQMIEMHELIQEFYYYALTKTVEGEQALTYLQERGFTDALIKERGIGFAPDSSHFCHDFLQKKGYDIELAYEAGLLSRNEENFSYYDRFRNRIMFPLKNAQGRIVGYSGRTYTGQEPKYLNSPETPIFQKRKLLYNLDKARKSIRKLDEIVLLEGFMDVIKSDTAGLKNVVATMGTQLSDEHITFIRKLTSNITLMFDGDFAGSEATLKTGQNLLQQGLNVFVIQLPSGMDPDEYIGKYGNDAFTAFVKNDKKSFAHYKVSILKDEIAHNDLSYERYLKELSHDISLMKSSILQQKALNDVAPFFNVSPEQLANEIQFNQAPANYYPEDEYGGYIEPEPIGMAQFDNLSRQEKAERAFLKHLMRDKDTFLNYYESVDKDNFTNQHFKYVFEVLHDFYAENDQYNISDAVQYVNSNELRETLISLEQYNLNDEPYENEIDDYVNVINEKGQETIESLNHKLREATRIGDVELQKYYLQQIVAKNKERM
Briefly: cell-based or functional assay.

The target of experiment [6] is T3, STAAU_R9-35 (amino acids 35 to 599 of …). Briefly: yeast two-hybrid, growth on THAL minus medium.
In experiment [7] the target is B4. In words: yeast two-hybrid, growth on THAL minus medium.
Experiment [8] concerns the target STAAU_R9-35 (amino acids 35 to 599 of SEQ ID NO: 2) in pGBKT7, Gal4 DNA binding domain fusion (yeast; Staphylococcus aureus, UniProt P04386 1-147). In words: cell-based or functional assay.
The target in experiment [9] is T4, GST/STAAU_R9-561-599 fusion protein from pGEX-6PK_STAAU_R9-561-599 (Staphylococcus aureus).
T4 construct: not shown: N-terminal GST tag encoded by pGEX-6P1 (Pharmacia Amersham Biotech); PreScission protease cleavage site, HMK phosphorylation site and cloning-site residues of pGEX-6PK
T4 chain: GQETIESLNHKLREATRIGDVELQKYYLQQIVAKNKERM
In words: affinity blotting (Far western), 32P-labelled probe on renatured blotted protein.

Experiment [10] concerns the target B1. The experiment is described as above.

Data on 6 molecules can be found in patent publication US7326541 (TARGANTA THERAPEUTICS, dated 2008).

Where no end group is shown, it is not given here.

B1: the binding result in experiment [1] is on record as “binds”; in experiment [2], “binds”; in experiment [3], “no binding”.

B2: STAAU_R9 561 599 (amino acids 561-599 of STAAU_R9, SEQ ID NO: 6) in pGADT7, Gal4 activation domain fusion (other)
chain: GQETIESLNHKLREATRIGDVELQKYYLQQIVAKNKERM
notes: Yeast two-hybrid construct
Take B2: the binding result in experiment [4] is recorded as “binds”. Take B3: the β-galactosidase activity in experiment [5] is 10 fold. Regarding B4, the binding result in experiment [6] is recorded as “no binding”.

B5: 96 ORF 78 fused to the yeast Gal4 activation domain (pGADT7) (other)
chain: MNIMQFKSLLKSMYEETKQSDPIVANVYIETGWAVNRLLDNNELSPFDDYDRVEKKIMNEINWKKTHIKEC
Regarding B5, the binding result in experiment [7] is “no binding”. Further, the β-galactosidase activity in experiment [8] was found to be 10 fold. B6: the binding result in experiment [9] was “binds”; in experiment [10], “binds”; in experiment [3], “no binding”.
